{"source": "paper PMC10786891", "about": "“Massively parallel profiling of RNA-targeting CRISPR-Cas13d”", "data": [{"molecular_target": "T1, EsCas13d, nuclease-dead (Eubacterium siraeum, UniProt B0MS50, R295A;H300A;R849A;H854A)", "T1 sequence": "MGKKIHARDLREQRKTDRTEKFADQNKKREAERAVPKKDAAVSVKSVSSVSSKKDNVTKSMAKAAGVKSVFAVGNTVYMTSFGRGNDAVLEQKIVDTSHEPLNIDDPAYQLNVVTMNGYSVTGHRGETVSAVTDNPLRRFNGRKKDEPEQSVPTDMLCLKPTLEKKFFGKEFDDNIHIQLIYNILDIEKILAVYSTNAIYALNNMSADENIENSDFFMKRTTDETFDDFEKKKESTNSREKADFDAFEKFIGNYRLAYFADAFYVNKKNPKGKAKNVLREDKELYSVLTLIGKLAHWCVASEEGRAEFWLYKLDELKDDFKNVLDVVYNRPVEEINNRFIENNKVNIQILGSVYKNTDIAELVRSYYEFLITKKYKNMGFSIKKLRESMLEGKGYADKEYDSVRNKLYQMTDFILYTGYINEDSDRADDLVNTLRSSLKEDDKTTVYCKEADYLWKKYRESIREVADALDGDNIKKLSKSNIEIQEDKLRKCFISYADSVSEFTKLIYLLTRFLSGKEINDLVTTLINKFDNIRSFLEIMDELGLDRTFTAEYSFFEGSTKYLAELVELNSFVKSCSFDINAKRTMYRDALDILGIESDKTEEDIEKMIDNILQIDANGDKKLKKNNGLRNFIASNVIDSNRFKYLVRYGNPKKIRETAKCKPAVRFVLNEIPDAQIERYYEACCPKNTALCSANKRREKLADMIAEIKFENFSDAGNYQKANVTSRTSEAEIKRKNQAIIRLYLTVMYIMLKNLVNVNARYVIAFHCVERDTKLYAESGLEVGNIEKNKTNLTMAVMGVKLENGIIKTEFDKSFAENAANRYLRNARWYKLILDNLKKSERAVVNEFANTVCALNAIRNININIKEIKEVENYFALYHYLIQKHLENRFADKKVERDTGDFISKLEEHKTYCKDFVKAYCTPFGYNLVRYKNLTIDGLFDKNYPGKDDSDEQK", "assay": "crRNA (strand 1, pre-loaded); Mg2+; 40 mM Tris-HCl pH 7.5, 150 mM NaCl, 6 mM MgCl2, 1 mM DTT, 0.1% Tween-20, 0.2 mg/ml BSA; 25 C; 10 min per concentration, then washed", "conditions": "tags: His6-TwinStrep-SUMO cleaved; N-terminal SNAP kept (SNAP-Surface 488); label: 3' end held by stalled T7 RNA polymerase", "units": {"Kd": "nM"}, "values": [{"binder": "target 1 insC 3' of 17,insA 3' of 4 (mixed) RNA 1: CACCCGUGCAAAAAUGCAGGGGUCUAAAACUGAGCGGAUAACCUCUCUAUGG RNA 2: GGGAAUGGAUCCACAUCUACGAAUUCGUACCAUAGCAGAGGUUAUCCGCAUCACCGAGAUCGGAAGAGCACACGU", "Kd": "28.6 ± 2.3"}, {"binder": "target 1 U3A,G15C (mixed) RNA 1: CACCCGUGCAAAAAUGCAGGGGUCUAAAACUGAGCGGAUAACCUCUCUAUGG RNA 2: GGGAAUGGAUCCACAUCUACGAAUUCGUACCAUAGACAGGUUAUCCGCACACCGAGAUCGGAAGAGCACACGU", "Kd": "32.9 ± 2.5"}, {"binder": "target 1 C2U,G15A (mixed) RNA 1: CACCCGUGCAAAAAUGCAGGGGUCUAAAACUGAGCGGAUAACCUCUCUAUGG RNA 2: GGGAAUGGAUCCACAUCUACGAAUUCGUACCAUAGAAAGGUUAUCCGCUUACCGAGAUCGGAAGAGCACACGU", "Kd": "13.7 ± 0.7"}, {"binder": "target 1 insG 3' of 6,insU 3' of 2 (mixed) RNA 1: CACCCGUGCAAAAAUGCAGGGGUCUAAAACUGAGCGGAUAACCUCUCUAUGG RNA 2: GGGAAUGGAUCCACAUCUACGAAUUCGUACCAUAGAGAGGUUAUCCGGCUCUACCGAGAUCGGAAGAGCACACGU", "Kd": "16.4 ± 0.9"}, {"binder": "target 1 insA 3' of 8,insU 3' of 6 (mixed) RNA 1: CACCCGUGCAAAAAUGCAGGGGUCUAAAACUGAGCGGAUAACCUCUCUAUGG RNA 2: GGGAAUGGAUCCACAUCUACGAAUUCGUACCAUAGAGAGGUUAUACCUGCUCACCGAGAUCGGAAGAGCACACGU", "Kd": "23.5 ± 1.4"}, {"binder": "target 1 insG 3' of 20,insU 3' of 18 (mixed) RNA 1: CACCCGUGCAAAAAUGCAGGGGUCUAAAACUGAGCGGAUAACCUCUCUAUGG RNA 2: GGGAAUGGAUCCACAUCUACGAAUUCGUACCAGUAUGAGAGGUUAUCCGCUCACCGAGAUCGGAAGAGCACACGU", "Kd": "65 ± 15"}, {"binder": "target 1 insC 3' of 14,insG 3' of 6 (mixed) RNA 1: CACCCGUGCAAAAAUGCAGGGGUCUAAAACUGAGCGGAUAACCUCUCUAUGG RNA 2: GGGAAUGGAUCCACAUCUACGAAUUCGUACCAUAGAGACGGUUAUCCGGCUCACCGAGAUCGGAAGAGCACACGU", "Kd": "54 ± 6"}, {"binder": "target 1 insC 3' of 22,insC 3' of 13 (mixed) RNA 1: CACCCGUGCAAAAAUGCAGGGGUCUAAAACUGAGCGGAUAACCUCUCUAUGG RNA 2: GGGAAUGGAUCCACAUCUACGAAUUCGUACCCAUAGAGAGCGUUAUCCGCUCACCGAGAUCGGAAGAGCACACGU", "Kd": "43 ± 15"}, {"binder": "target 1 insC 3' of 15,insG 3' of 11 (mixed) RNA 1: CACCCGUGCAAAAAUGCAGGGGUCUAAAACUGAGCGGAUAACCUCUCUAUGG RNA 2: GGGAAUGGAUCCACAUCUACGAAUUCGUACCAUAGAGCAGGUGUAUCCGCUCACCGAGAUCGGAAGAGCACACGU", "Kd": "41 ± 6"}, {"binder": "target 1 insA 3' of 10,insG 3' of 4 (mixed) RNA 1: CACCCGUGCAAAAAUGCAGGGGUCUAAAACUGAGCGGAUAACCUCUCUAUGG RNA 2: GGGAAUGGAUCCACAUCUACGAAUUCGUACCAUAGAGAGGUUAAUCCGCGUCACCGAGAUCGGAAGAGCACACGU", "Kd": "6.44 ± 0.26"}, {"binder": "target 1 insG 3' of 10,insG 3' of 9 (mixed) RNA 1: CACCCGUGCAAAAAUGCAGGGGUCUAAAACUGAGCGGAUAACCUCUCUAUGG RNA 2: GGGAAUGGAUCCACAUCUACGAAUUCGUACCAUAGAGAGGUUGAGUCCGCUCACCGAGAUCGGAAGAGCACACGU", "Kd": "8.8 ± 0.5"}, {"binder": "target 1 insU 3' of 12,insG 3' of 2 (mixed) RNA 1: CACCCGUGCAAAAAUGCAGGGGUCUAAAACUGAGCGGAUAACCUCUCUAUGG RNA 2: GGGAAUGGAUCCACAUCUACGAAUUCGUACCAUAGAGAGGUUUAUCCGCUCGACCGAGAUCGGAAGAGCACACGU", "Kd": "6.9 ± 0.6"}, {"binder": "target 1 A1C,C2A (mixed) RNA 1: CACCCGUGCAAAAAUGCAGGGGUCUAAAACUGAGCGGAUAACCUCUCUAUGG RNA 2: GGGAAUGGAUCCACAUCUACGAAUUCGUACCAUAGAGAGGUUAUCCGCUACCCGAGAUCGGAAGAGCACACGU", "Kd": "36 ± 4"}, {"binder": "target 1 C2G,G17U (mixed) RNA 1: CACCCGUGCAAAAAUGCAGGGGUCUAAAACUGAGCGGAUAACCUCUCUAUGG RNA 2: GGGAAUGGAUCCACAUCUACGAAUUCGUACCAUAUAGAGGUUAUCCGCUGACCGAGAUCGGAAGAGCACACGU", "Kd": "14.5 ± 0.7"}, {"binder": "target 1 insG 3' of 7,insC 3' of 3 (mixed) RNA 1: CACCCGUGCAAAAAUGCAGGGGUCUAAAACUGAGCGGAUAACCUCUCUAUGG RNA 2: GGGAAUGGAUCCACAUCUACGAAUUCGUACCAUAGAGAGGUUAUCGCGCUCCACCGAGAUCGGAAGAGCACACGU", "Kd": "6.68 ± 0.19"}, {"binder": "target 1 C2A (mixed) RNA 1: CACCCGUGCAAAAAUGCAGGGGUCUAAAACUGAGCGGAUAACCUCUCUAUGG RNA 2: GGGAAUGGAUCCACAUCUACGAAUUCGUACCAUAGAGAGGUUAUCCGCUAACCGAGAUCGGAAGAGCACACGU", "Kd": "9.3 ± 0.9"}, {"binder": "target 1 insU 3' of 13,insG 3' of 3 (mixed) RNA 1: CACCCGUGCAAAAAUGCAGGGGUCUAAAACUGAGCGGAUAACCUCUCUAUGG RNA 2: GGGAAUGGAUCCACAUCUACGAAUUCGUACCAUAGAGAGUGUUAUCCGCUGCACCGAGAUCGGAAGAGCACACGU", "Kd": "14.4 ± 1.9"}, {"binder": "target 1 insC 3' of 18,insG 3' of 3 (mixed) RNA 1: CACCCGUGCAAAAAUGCAGGGGUCUAAAACUGAGCGGAUAACCUCUCUAUGG RNA 2: GGGAAUGGAUCCACAUCUACGAAUUCGUACCAUACGAGAGGUUAUCCGCUGCACCGAGAUCGGAAGAGCACACGU", "Kd": "26.8 ± 1.8"}, {"binder": "target 1 insA 3' of 12,insG 3' of 4 (mixed) RNA 1: CACCCGUGCAAAAAUGCAGGGGUCUAAAACUGAGCGGAUAACCUCUCUAUGG RNA 2: GGGAAUGGAUCCACAUCUACGAAUUCGUACCAUAGAGAGGAUUAUCCGCGUCACCGAGAUCGGAAGAGCACACGU", "Kd": "16.2 ± 1.1"}, {"binder": "target 1 C2A,U19C (mixed) RNA 1: CACCCGUGCAAAAAUGCAGGGGUCUAAAACUGAGCGGAUAACCUCUCUAUGG RNA 2: GGGAAUGGAUCCACAUCUACGAAUUCGUACCACAGAGAGGUUAUCCGCUAACCGAGAUCGGAAGAGCACACGU", "Kd": "22.1 ± 1.6"}, {"binder": "target 1 insA 3' of 12,insG 3' of 6 (mixed) RNA 1: CACCCGUGCAAAAAUGCAGGGGUCUAAAACUGAGCGGAUAACCUCUCUAUGG RNA 2: GGGAAUGGAUCCACAUCUACGAAUUCGUACCAUAGAGAGGAUUAUCCGGCUCACCGAGAUCGGAAGAGCACACGU", "Kd": "28 ± 4"}, {"binder": "target 1 insC 3' of 13,insU 3' of 13 (mixed) RNA 1: CACCCGUGCAAAAAUGCAGGGGUCUAAAACUGAGCGGAUAACCUCUCUAUGG RNA 2: GGGAAUGGAUCCACAUCUACGAAUUCGUACCAUAGAGAGCUGUUAUCCGCUCACCGAGAUCGGAAGAGCACACGU", "Kd": "8.3 ± 0.4"}, {"binder": "target 1 insU 3' of 14,insU 3' of 12 (mixed) RNA 1: CACCCGUGCAAAAAUGCAGGGGUCUAAAACUGAGCGGAUAACCUCUCUAUGG RNA 2: GGGAAUGGAUCCACAUCUACGAAUUCGUACCAUAGAGAUGGUUUAUCCGCUCACCGAGAUCGGAAGAGCACACGU", "Kd": "26.6 ± 2.7"}, {"binder": "target 1 insU 3' of 9,insA 3' of 4 (mixed) RNA 1: CACCCGUGCAAAAAUGCAGGGGUCUAAAACUGAGCGGAUAACCUCUCUAUGG RNA 2: GGGAAUGGAUCCACAUCUACGAAUUCGUACCAUAGAGAGGUUAUUCCGCAUCACCGAGAUCGGAAGAGCACACGU", "Kd": "8 ± 1"}, {"binder": "target 1 insG 3' of 16,insU 3' of 16 (mixed) RNA 1: CACCCGUGCAAAAAUGCAGGGGUCUAAAACUGAGCGGAUAACCUCUCUAUGG RNA 2: GGGAAUGGAUCCACAUCUACGAAUUCGUACCAUAGAGUGAGGUUAUCCGCUCACCGAGAUCGGAAGAGCACACGU", "Kd": "44 ± 8"}, {"binder": "target 1 insC 3' of 11,insU 3' of 9 (mixed) RNA 1: CACCCGUGCAAAAAUGCAGGGGUCUAAAACUGAGCGGAUAACCUCUCUAUGG RNA 2: GGGAAUGGAUCCACAUCUACGAAUUCGUACCAUAGAGAGGUCUAUUCCGCUCACCGAGAUCGGAAGAGCACACGU", "Kd": "40 ± 17"}, {"binder": "target 1 U8C,G15C (mixed) RNA 1: CACCCGUGCAAAAAUGCAGGGGUCUAAAACUGAGCGGAUAACCUCUCUAUGG RNA 2: GGGAAUGGAUCCACAUCUACGAAUUCGUACCAUAGACAGGUUACCCGCUCACCGAGAUCGGAAGAGCACACGU", "Kd": "68 ± 11"}, {"binder": "target 1 insG 3' of 14,insA 3' of 4 (mixed) RNA 1: CACCCGUGCAAAAAUGCAGGGGUCUAAAACUGAGCGGAUAACCUCUCUAUGG RNA 2: GGGAAUGGAUCCACAUCUACGAAUUCGUACCAUAGAGAGGGUUAUCCGCAUCACCGAGAUCGGAAGAGCACACGU", "Kd": "12.2 ± 1.4"}]}]}
